B1: EstL5 (Geobacillus thermodenitrificans) (protein)
chain: ALVVQDQLFTAAKPSIEQKRPSANEAKKRDGEIDIVALGDSLTRGTGDESGKGYIGYMVDELRQQTDEPIRVTNLAIRGLRSDGLLRQLGQSEIQRQIAMADLIVMTIGGNDLFQGGEALEWNVKELDEAKRQYIANLDRIFALLRRLNSEAVIFAIGLYNPFSDLDDAKRTSAIVRDWNFASAEVAAHYPNIVAVPTFDLFALHVNDYLYSDHFHPNKEGYKRIGERVASLITLTEEDRQ
notes: without deduced signal peptide, N-terminal His tag, pET28b, E. coli BL21(DE3); two molecules in asymmetric unit
B2: EstL5 (Geobacillus thermodenitrificans; S207W) (protein)
chain: ALVVQDQLFTAAKPSIEQKRPSANEAKKRDGEIDIVALGDSLTRGTGDESGKGYIGYMVDELRQQTDEPIRVTNLAIRGLRSDGLLRQLGQSEIQRQIAMADLIVMTIGGNDLFQGGEALEWNVKELDEAKRQYIANLDRIFALLRRLNSEAVIFAIGLYNPFSDLDDAKRTSAIVRDWNFAWAEVAAHYPNIVAVPTFDLFALHVNDYLYSDHFHPNKEGYKRIGERVASLITLTEEDRQ
notes: as for B1
B3: EstL5 (Geobacillus thermodenitrificans; S207F) (protein)
chain: ALVVQDQLFTAAKPSIEQKRPSANEAKKRDGEIDIVALGDSLTRGTGDESGKGYIGYMVDELRQQTDEPIRVTNLAIRGLRSDGLLRQLGQSEIQRQIAMADLIVMTIGGNDLFQGGEALEWNVKELDEAKRQYIANLDRIFALLRRLNSEAVIFAIGLYNPFSDLDDAKRTSAIVRDWNFAFAEVAAHYPNIVAVPTFDLFALHVNDYLYSDHFHPNKEGYKRIGERVASLITLTEEDRQ
notes: as for B1

The proteins below were run on CCCC(=O)Oc1ccc([N+](=O)[O-])cc1 (assay: purified protein). Conditions: 20 mM Tris-HCl pH 8.0, 30°C.
Format: biochemical, Geobacillus thermodenitrificans
With B1 the Km was 640 ± 2210 µM and the kcat was 116.27±1.71 S-1. For B2, the Km was 790 ± 2670 µM and the kcat was 86.78±1.03 S-1. For B3, the Km was 650 ± 1920 µM and the kcat was 86.51±1.68 S-1.
